Molecular target: AAV-DJ capsid proteins VP2 and VP3 (capsid shell) (adeno-associated virus, AAV-DJ (engineered capsid))
Assay: co-sedimentation

AAV-DJ capsid protein VP1 (wild type) (natural protein)
VP1 copies per 60-mer capsid (VP1 copies per 60-mer capsid): 3
